Targets include DLA2 WT (MST) (Chlamydomonas reinhardtii, UniProt A0A2K3DW88 32-494); DLA2 ΔCat 462 (Chlamydomonas reinhardtii, UniProt A0A2K3DW88 32-461); DLA2 ΔE3B (Chlamydomonas reinhardtii, UniProt A0A2K3DW88 32-184+=VD+224-494, internal_change); DLA2 ΔCat 450 (Chlamydomonas reinhardtii, UniProt A0A2K3DW88 32-449); DLA2 ΔCat 315 (Chlamydomonas reinhardtii, UniProt A0A2K3DW88 32-314); DLA2 ΔCat (Chlamydomonas reinhardtii, UniProt A0A2K3DW88 32-269); DLA2 ΔCat 394 (Chlamydomonas reinhardtii, UniProt A0A2K3DW88 32-393); DLA2 ΔLip (Chlamydomonas reinhardtii, UniProt A0A2K3DW88 116-494).

What all share (experiment): MST
In another series the target is T1, PratA (Synechocystis sp. PCC 6803, UniProt P73091 39-383).
T1 sequence: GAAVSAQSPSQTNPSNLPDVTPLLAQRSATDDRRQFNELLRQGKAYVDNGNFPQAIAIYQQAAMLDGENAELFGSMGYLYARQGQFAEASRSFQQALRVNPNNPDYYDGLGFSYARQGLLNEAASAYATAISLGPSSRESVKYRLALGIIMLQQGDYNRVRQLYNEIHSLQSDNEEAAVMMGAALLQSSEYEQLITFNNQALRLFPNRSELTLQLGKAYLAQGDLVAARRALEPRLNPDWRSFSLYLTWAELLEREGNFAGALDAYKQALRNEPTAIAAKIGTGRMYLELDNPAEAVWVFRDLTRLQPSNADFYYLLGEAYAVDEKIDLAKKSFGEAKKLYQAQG

The term Kd denotes the free concentration of one partner at which half of the binding sites on the other are occupied at equilibrium, for simple one-to-one binding. Lower therefore signals tighter binding. For UUUACGGAGAAAUUAAAACUUUCCCCCCCCCCCCAUAUGACCAUGGAUC (ssRNA) [psbA 5'-UTR C-stretch probe], the equilibrium dissociation constant (Kd) with DLA2 WT (MST) turned out to be 248 ± 54 nM; with DLA2 ΔCat 462 it was 625 ± 75 nM; with DLA2 ΔE3B it was 244 ± 43 nM.
As to UUUACGGAGAAAUUAAAACUUUAAAAAAAUUAACAUAUGACCAUGGAUC (ssRNA) [psbA 5'-UTR probe native], the Kd with DLA2 ΔCat 450 amounted to 466 ± 65 nM; with DLA2 WT (MST), 106 ± 24 nM; with DLA2 ΔCat 315 it was 607 ± 82 nM; with DLA2 ΔCat 462, 427 ± 55 nM; in the series with DLA2 ΔCat it was 911 ± 60 nM; with DLA2 ΔCat 394 it was 558 ± 77 nM. The Kd with DLA2 ΔLip came out at 107 ± 20 nM; in the series with DLA2 ΔE3B, 241 ± 21 nM. In addition, the binding result with PratA is given as “no binding”.

These data come from doi:10.1101/831339.
